The results in this text go back to patent US5972698.

Experiment [1] concerns the target human cathepsin G (human) (UniProt P08311).
Experiment [2] concerns the target human plasmin (human) (UniProt P00747).
Experiment [3] deals with human thrombin (human) (UniProt P00734).
For experiment [4], the target named is porcine pancreatic kallikrein (porcine) (UniProt P00752).
For experiment [5], the target named is human tryptase (purified from human lung tissue) (human) (UniProt Q15661).
The target is the same in experiment [6]. The source holds these as a separate data set.
For experiment [7] the target is unchanged. This is another data set of the same source.
Experiment [8] deals with human cathepsin G (human) (UniProt P08311). Kind of experiment: enzyme inhibition at 0.2 µM inhibitor, Table 5.
The target of another experiment is human factor Xa (human) (UniProt P00742). Kind of experiment: enzyme inhibition at 0.2 µM inhibitor, Table 5.
For experiment [9], the target named is human neutrophil elastase (human) (UniProt P08246). Nature of the experiment: enzyme inhibition at 0.2 µM inhibitor, Table 5.
Experiment [10] addresses human plasma kallikrein (human) (UniProt P03952). Kind of experiment: enzyme inhibition at 0.2 µM inhibitor, Table 5.
In experiment [11] the target is human plasmin (human) (UniProt P00747). Nature of the experiment: enzyme inhibition at 0.2 µM inhibitor, Table 5.
The target of experiment [12] is human thrombin (human) (UniProt P00734). Nature of the experiment: enzyme inhibition at 0.2 µM inhibitor, Table 5.
Another experiment deals with human urokinase (human) (UniProt P00749). Kind of experiment: enzyme inhibition at 0.2 µM inhibitor, Table 5.
The target of experiment [13] is porcine pancreatic elastase (porcine) (UniProt P00772). Nature of the experiment: enzyme inhibition at 0.2 µM inhibitor, Table 5.
In experiment [14] the target is porcine pancreatic kallikrein (porcine) (UniProt P00752). Kind of experiment: enzyme inhibition at 0.2 µM inhibitor, Table 5.
Experiment [15] addresses bovine chymotrypsin (bovine) (UniProt P00766). Kind of experiment: enzyme inhibition, steady state velocities on Suc-Val-Pro-Phe-pNA, tight binding fit.
The target of experiment [16] is bovine trypsin (bovine) (UniProt P00760). Nature of the experiment: enzyme inhibition, steady state velocities on Tos-Gly-Pro-Arg-pNA, tight binding fit.
Experiment [17] addresses human tryptase (purified from human lung tissue) (human) (UniProt Q15661). The description is as above.
For experiment [18] the target is unchanged. Kind of experiment: enzyme inhibition, steady state velocities on Tos-Gly-Pro-Arg-pNA, tight binding fit; Ki for the inhibition of two of the four subunits of the tryptase-tetramer.
Experiment [19] concerns the target bovine trypsin (bovine) (UniProt P00760).
Target sequence in this assay (P00760 24-246): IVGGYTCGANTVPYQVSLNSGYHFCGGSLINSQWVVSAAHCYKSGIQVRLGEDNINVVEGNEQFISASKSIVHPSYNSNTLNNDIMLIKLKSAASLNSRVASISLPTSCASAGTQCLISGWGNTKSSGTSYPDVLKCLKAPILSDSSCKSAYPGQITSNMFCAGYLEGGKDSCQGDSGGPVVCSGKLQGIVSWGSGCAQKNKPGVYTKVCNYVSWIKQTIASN
Experiment [20] concerns the target human tryptase (purified from human lung tissue) (human) (UniProt Q15661). The source holds these as a separate data set.
For experiment [21] the target is unchanged. Nature of the experiment: enzyme inhibition, tos-Gly-Pro-Arg-pNa as substrate.

Like-named read-outs stand apart in the source and are kept apart here. Where only a bound is given, the exact number is not on record here.

Sequence of recombinant leech-derived tryptase inhibitor form C, secreted by Saccharomyces cerevisiae (strain S-78 with pRM 9.1.4) (chain): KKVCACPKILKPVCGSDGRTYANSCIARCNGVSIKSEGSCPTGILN

In the case of “leech-derived tryptase inhibitor (isolated from extract of the medical leech Hirudo medicinalis)”, the amidolytic activity of cathepsin G on Suc-Val-Pro-Phe-pNA, inhibitor at 0.2 µM in [1] was 11%. The substance further came in with an amidolytic activity of plasmin on Tos-Gly-Pro-Lys-pNA, inhibitor at 0.2 µM with human plasmin (human) [2] of 30%. Also, in the experiment with human thrombin (human) [3], the amidolytic activity of thrombin on Tos-Gly-Pro-Arg-pNA, inhibitor at 0.2 µM came to 12%. The amidolytic activity of tissue kallikrein on D-Val-Leu-Arg-pNA, inhibitor at 0.2 µM in [4] was 14%. The amidolytic activity of tryptase on tos-Gly-Pro-Arg-pNa in experiment [5] is 50%. In experiment [6], this substance had a tryptase-induced breakdown of vasoactive intestinal peptide (VIP), reversed phase HPLC of 66%. This substance also showed a tryptase-induced growth of HaCaT keratinocytes (3H-thymidine incorporation) in experiment [7] of 99%. Also, the Ki relative to the complex with tryptase (times higher) (in [8]; in the experiment with human factor Xa (human); in experiment [9]; in experiment [10]; with human plasmin (human) [11]; with human thrombin (human) [12]) was more than 200 times throughout. Also, the Ki relative to the complex with tryptase (times higher) (in the experiment with human urokinase (human); in [13]; in experiment [14]) was more than 200 times in each case. Also, the Ki – broadly, the equilibrium dissociation constant of an inhibitor or competing ligand from its target – in experiment [15] was 20 nM; with bovine trypsin (bovine) [16], 0.9 nM; in experiment [18] it was 1.4 nM. For the same substance, the values for the Ki [nM], first of the two columns so headed (in experiment [15]; with bovine trypsin (bovine) [16]; in experiment [17]) were 137 nM, 4.7 nM and 1.8 nM, respectively.

Substance “recombinant leech-derived tryptase inhibitor form C, secreted by Saccharomyces cerevisiae (strain S-78 with pRM 9.1.4)” displayed a trypsin inhibition assay (residual trypsin activity on Tos-Gly-Pro-Arg-p-NA) with bovine trypsin (bovine) [19] of 60%. For the same substance, the amidolytic activity of tryptase on tos-Gly-Pro-Arg-pNa in [20] came to 50%. The substance also showed an inhibition constant Ki in experiment [21] of 1.9 nM.
